Test results taken from the DeepSol protein solubility set.

Experiment: soluble on expression in E. coli; label from the status in PepcDB or PDB records
With “MKIAVLGASGWIGGTILNEALSRGHEVVALVRDPSKLGETAAEVRSVDLAKPLTADTFAGVDVLIASVGGRADLNHSLVAKTVNNLLALLPLAKVPRLLWVGGAGSLEVAPGVTLVSSPDFPPAYKDEALAQGEALKAFRAANTAVNWTFVSPAAEIYPGESEGLYRLGGDSFFTDAKGRSRISVTDYAKAMLDEAEKGAHPNQRISVAYLEHHHHHH” the “soluble on expression in E. coli” value was “soluble”. With “VLFRQLEYFVAVAQERHFARAAEKCYVSQPALSSAIAKLERELNVTLINRGHSFEGLTREGERLVVWAKRILAEHAAFKAEVDAVRSGITGTLRLGTVPTASTTASLVLSAFCSAHPLAKVQVCSRLAATELYRRLREFELDAVIVHPETQDSDDVDLVPLYEEQYVLLSPADMLPPGTSTLVWRDAAQLPLALLTADMRDRQVIDAAFADHAVSAIPQVETDSVASLFAQVATGNWASIVPHTWLWAMPMSGPTGGEIRAVELVDPVLKAQIALATNALGPGSPVARALITCAQALALNEFFDTQLRGITRRR” the “soluble on expression in E. coli” value was “not soluble”. With “MKIQMKTPLVELDGDEMTRVLWPLIKDKLLLPFIDLQTEYYDLGIEERDRTNDQITIDAAEAIKKYGVGVKNATITPNQDRVEEYGLKEQWKSPNATVRAMLDGTVFRKPIMVKNIKPSVRSWQKPIVVGRHAYGDFYKNAEIFAEAGGKLEIVVTDKNGKETRQTIMEVDEPAIVQGIHNTVASIGHFARACFEYSLDQKIDCWFATKDTISKQYDQRFKIIFEEIFAQEYKEKFAAAGIEYFYTLIDDVVARMMKTEGGMLWACKNYDGDVMSDMVASAFGSLAMMSSVLVSPYGYFEYEAAHGTVQRHYYQHLKGERTSTNPVALIYAWTGALRKRGELDGTPDLCAFCDSLEAITIECIESGYMTGDLARICEPAAIKVLDSIEFIDELGKRLQQLNK” the “soluble on expression in E. coli” value was “soluble”. For “GHMAGGTKRLPRAVREQQMLDAAVDVFSDRGFHETSMDAIAAKAEISKPMLYLYYGSKDELFAACIQREGLRFVEALAPAGDPGLSPREQLRRALEGFLGFVGKHRKSWMVLYRQAMGQQAFVGSVQSSRDRLIELTAHLLESSTKDPEPGQDFELIAIALVGAGEAVADRVAGGEIEVDAAADLLESLAWRGLAGKKKPEGS”, the “soluble on expression in E. coli” value was “soluble”. For “MREAMFYEKLDDNKVRCHICPRHCIIKEGERGFCWNRENINGVLYAVGYGKVCSLAIDPIEKKPLFHFYPTTQVVSLAIGGCNFRCLHCQNWTISQFPPDEIPYREMTPEEIVEVAIRYNCPGISYTYTEPTVYYEFMYDTSVIARENGMFNVMITNGYIEKEPLKALPVDAMNIDIKGNADFYKKVCKATLEPVLETCKLAKKLGIWVEVTNLIVPNYNDNIDDLLFIIHFVRDELGRETPLHFSRFHPDYKLTDVPPTPIETLEMARNLAIEEGLKYVYIGNVPGHEGENTYCPNCGALLIERYIFNAKIINLDVETKRCKICGEKIDIVL”, the “soluble on expression in E. coli” value was “not soluble”. With “MGSDKIHHHHHHMILAAKNSVFVHIRRGDYVGIGCQLGIDYQKKALEYMAKRVPNMELFVFCEDLEFTQNLDLGYPFMDMTTRDKEEEAYWDMLLMQSCQHGIIANSTYSWWAAYLIENPEKIIIGPKHWLFGHENILCKEWVKIESHFEVKSQKYNA” the “soluble on expression in E. coli” value was “not soluble”. For “MTYDYVIVGGGIVGVSTGWQLKRRYPEKSVLLIEKEAGFSRHQTGHNSGVIHAGVYYAPGSLKADFCKRGVERTLAFCAQHNIPVENCGKLLVATNEQELERMHALYDRCLQNQIDVEKLDAAQLKLAEPNIRGLGAILVKATSIVNYRLVTEKMAEAFMQLGGDVKIGTEVVGLEETPSSITLTCQQKNQRVSYQAKFLVTCSGLMADRLTKMLGLPTDFQIIPYRGEYYRLAPKHNQVVRHLIYPIPDPELPFLGVHLTRMIDGCVTVGPN”, the “soluble on expression in E. coli” value was “not soluble”. With “MRISTLQGQYQCIIIDPPWFYRLRSKDKTHRNRIPYQPMRTPEILALPIPDLCDAGGCVLWLWFTNNHMIEAAQCLQRWGFDLKTILTWGKVTKDGTKTHLGVGHWLRNSTEHCALAVRGNVKAFAGQTSTTGGTPTLTNQSTILHSPRREHSRKPPEFFELVEKLCPDMTKLEIFARESRDGWDCWGDQADLFDASDEEILVKAEKVLLLEHHHHHH” the “soluble on expression in E. coli” value was “not soluble”. For “EVVVVGYSTQKKESLTGALQTVKSDKLKDITTPSVENMLNGKVPGVYVAPGSGQPGSGGAVVIRGQATLSGTTAPLWVIDGVIVGSNAGALNPSDIETMTILKDAASTAIYGSQGANGVILVTTKNGK”, the “soluble on expression in E. coli” value was “not soluble”. For “MSLTLSDKDFEVLRDFIYNHCGIYFHTSKKYFLESRITRRIEATSSPNLMTYMGLLKSGPGKSDELLKLLTEITTNETCFFRNPPQLKALENVFLPEIVAAKGKIGFRKLRIWSAGSSSGEEAYTMAMLLLEKRATILKDWIIEIVGTDISETVLAQAREGVYNAYSVRNTPDYYKKKYFRQEPGERYVLSPDVKKLVSFNHLNLYEDAKMVFMKSFDFIFCANVLIYFDLASKTKVVQHYYNNLQPYGYFFVGQSESLHGVNDKFKTVHFPGGFAYKKEGHHHHHH”, the “soluble on expression in E. coli” value was “soluble”. With “MGHHHHHHSHMKGIMVQGTASDVGKSLICTALCRIFARRGYKVTPFKSQNMSNNSYITVEGLEIGRAQGIQAEAAMEEASVYMNPILLKPRNDREAEIVCFGQAVDTVSGVKYRDGFYKRGLEAIKQALATLSQSFDMVVIEGAGSPVEVNLNDRELVNMKVAELADVPVILVADIERGGVFASLYGTLELLQPNERKRVVGIIVNKFRGDPELFSSGVQWIEQHLGVPVLGVLPHLPGVRIEGEDSLSKGQVTSVLP” the “soluble on expression in E. coli” value was “not soluble”. In the case of “MRFIHALLLAGIAHSAYASEKLTFKTDLEKLEREKAAQIGVAIVDPQGEIVAGHRMAQRFAMCSTFKFPLAALVFERIDSGTERGDRKLSYGPDMIVEWSPATERFLASGHMTVLEAAQAAVQLSDNGATNLLLREIGGPAAMTQYFRKIGDSVSRLDRKEPEMGDNTPGDLRDTTTPIAMARTVAKVLYGGALTSTSTHTIERWLIGNQTGDATLRAGFPKDWVVGEKTGTCANGGRNDIGFFKAQERDYAVAVYTTAPKLSAVERDELVASVGQVITQLILSTDK”, the “soluble on expression in E. coli” value is reported as “soluble”. With “MGHHHHHHSHMFNVMVDAKAQSTKLCSMEMGQEFAKMWHQYHSKIDELIEETVKEMITLLVAKFVTILEGVLAKLSRYDEGTLFSSFLSFTVKAASKYVDVPKPGMDVADAYVTFVRHSQDVLRDKVNEEMYIERLFDQWYNSSMNVICTWLTDRMDLQLHIYQLKTLIRMVKKTYRDFRLQGVLDSTLNSKTYETIRNRLTVEEATASVSEGGGLQGISMKDSDEEDEEDD” the “soluble on expression in E. coli” value was “not soluble”. In the case of “MASKYAVKLQTDFDNPKWIKRHKFMFDYLDINGNGQITLDEIVSKASDDICKNLGATPAQTQRHQDCVEAFFRGCGLEYGKETKFPEFLEGWKNLANADLAKWARNEPTLIREWGDAVFDIFDKDGSGTITLDEWKAYGRISGISPSEEDCEKTFQHCDLDNSGELDVDEMTRQHLGFWYTLDPEADGLYGNGVP”, the “soluble on expression in E. coli” value is reported as “soluble”. For “MIEVAEIIAREIRRGKIVEIGVGFYLEVAKRLRESGIDILVVDINEKAINYARKQGIKGVVDDIFNPTLGIYKDAKAIYSIRPAPEMMKPLLDLARKLKIPLYIVPLTGDRTPNGMKLINYKGIPIYKWEP”, the “soluble on expression in E. coli” value was “soluble”. In the case of “MSLPILTIREVCNINHWGIGYYDVDDSGEIIVRPNPSQHNQTVSLQKLTEAVQQKHQARLPVLFCFPQILEHRLRDINRAFQTAREECGYKGGYCLVYPIKVNQHRRVIESLMSSGQPHGLEAGSKAELMAVLAHAGNRQTLIVCNGYKDREYIRFALMGEKLGHQVYLVIEKLSEIQMVLEEAEKLGIKPRLGVRARLASQGSGKWQSSGGEKSKFGLSASQVLQLVDILKQKNRLDCLQLLHFHLGSQLGNIRDVATGVHESARFYVELHKLGVNIRCFDVGGGLGVDYEGNRTQSDCSVNYSLNEYAATVVWGISQACLEHGLPHPTIITESGRGITAHHAVLVANVIGVERYKPRRLDAPSPEAPRVLHSMWETWTDISASREKRSLRSWIHEGQFDLADVHNQYNVGLLSLAQRAWAEQLYLNICHEVGELFNEKHRSHRTIIDELQERFADKLYVNFSLFQSLPDAWGIDQLFPVCPITGLNEPIARRAVLLDITCDSDGTIDHYIDGDGIAGTMPMPDYPEEEPPLLGFFMVGAYQEILGNMHNLFGDTATADVVVGEDGQFTVIDYDEGNTVADMLEYVYQDPKELMKRYREQIEHSDLPASQAMSFLKELEAGLNGYTYLEDEEGHHHHHH”, the “soluble on expression in E. coli” value is reported as “soluble”. In the case of “SPSYTVLGQLPDTDVYIDIDAYEEVKEIPGIKIFQINAPIYYANSDLYSSALKRKTGVNGSENIHTVILDFTQVNFMDSVGVKTLAGIVKEYGDVGIYVYLAGCSAQVVNDLTSNRFFENPALKELLFHSIHDAVLGSQVREA”, the “soluble on expression in E. coli” value is reported as “soluble”. With “MVSFVNCRSQIKTNMQEQNNPLLCNPESGFCEMPSIKPDTAHQADLKSDKKPVKVIYYTDPICSSCWGIEPQLRKLKLEYGTSIDIEYRMGGLLPDWSYNSGGISKPSDVAHHWDEVSVYYDMPIDGGVWLEDPLPSSYPPSIAFKAVQIQSTERAILFLREIREMVFLQKKNIAKWEHLEQAAKNTGVNIEQFKKDYEGRAKDLFYADLKLARDLGVHGFPTMIFSDSTGKNETVYGYKPYAVFENTIAGLYPSVQKYTYDKSIAAVFSTFHSLTAKEFSELTGVARNQSEQMLDEYVKQGMLQKWTTKNGSLWSLKK” the “soluble on expression in E. coli” value was “not soluble”. In the case of “MSLQEELSVLLKAQYPLIYLVTSEEERAEQAVYRIVQEVTRHQRLFVWTVTHGFREYGVAQQKTHHNTMSPEAAIEWVVRQEPGIFIFKDLHPFISSPAVTRWLREAIASFKGTEKAIILMSPYQETPIELEKDVVVLDFALPDLVTLDGVLGQQLGKSRHALGEDSREKLLKAALGLTKDEAEKVYRKAYVKAGQLTEGEVEIVLSEKKQMIRRNEGHHHHHH”, the “soluble on expression in E. coli” value is reported as “soluble”. In the case of “MVKVTYDIPTCEDYCALRINAGMSPKTREAAEKGLPNALFTVTLYDKDRLIGMGRVIGDGGTVFQIVDIAVSKSYQGQDYGSLIMEHIMKYIKNVSVESAYVSLIADYPADKLYAKFGFMPTEPDSGGMYIKY”, the “soluble on expression in E. coli” value is reported as “soluble”. For “MSSEDRHLGSSCGSFIKTEPSSPSSGIDALSHHSPSGSSDASGGFGIALSTHANGLDSPPMFAGAGLGGNPCRKSYEDCTSGIMEDSAIKCEYMLNAIPKRLCLVCGDIASGYHYGVASCEACKAFFKRTIQGNIEYNCPATNECEITKRRRKSCQACRFMKCLKVGMLKEGVRLDRVRGGRQKYKRRLDSENSPYLNLPISPPAKKPLTKIVSNLLGVEQDKLYAMPPNDIPEGDIKALTTLCELADRELVFLINWAKHIPGFPSLTLGDQMSLLQSAWMEILILGIVYRSLPYDDKLAYAEDYIMDEEHSRLVGLLDLYRAILQLVRRYKKLKVEKEEFMILKALALANSDSMYIENLEAVQKLQDLLHEALQDYELSQRHEEPRRAGKLLWTLPLLRQTAAKAVQHFYSVKLQGKVPMHKLFLEMLEAKV”, the “soluble on expression in E. coli” value was “soluble”. In the case of “MSEKYIVTWDMLQIHARKLASRLMPSEQWKGIIAVSRGGLVPGALLARELGIRHVDTVAISSYDHDNQRELKVLKRAEGDGEGFIVIDDLVDTGGTAVAIREMYPKAHFVTIFAKPAGRPLVDDYVVDIPQDTWIEQPWDMGVVFVPPISGR”, the “soluble on expression in E. coli” value is reported as “soluble”. For “MGSDKIHHHHHHMLNLEQLNAFIAAVEKGSFSAAARHIGKSQSSVSIGVNNLELDLGVELFDRSTKYPQLTEQGERLYHQAKALMRQATRMESYAKGVIEAVEDQLVIGADPLVPMSVFDSALEKMAEKFPFTRVKLVKLTGNHLNRAIEADEVDVGFNIMSEAVPENLDFIGIARIEWVCICSPDYKFADLEAVDSEMLINERQIVCSSMLQNEYLAKLGRVSQETWEASDLDDMIRLVEQGIGWGIIPLSMYEEKAAIGTLSTFKPVIEKETGLITVDLLWKSTAQLGPAKSFFIDLLKR”, the “soluble on expression in E. coli” value was “not soluble”.
